Columns and labels:
[1] = target: T1, 人Claudin18.2 (过表达细胞) (human, UniProt P56856-2 1-261); experiment: cell-based or functional assay
[2] = target: T1, 人Claudin18.2 (过表达细胞); experiment: cell ELISA on 293 cells transfected with human Claudin18.2
[3] = target: T2, 人Claudin18.1 (过表达细胞) (human, UniProt P56856 1-261); experiment: cell ELISA on 293 cells transfected with human Claudin18.1
T2 construct: whole, on cells; also called CLDN18.1; Caludin18.1

[4] = target: T3, 人Claudin18.2-His重组蛋白(Kactus,Cat.CLD-HE1821) (human, UniProt P56856-2 1-261, limits assumed); experiment: ELISA, human Claudin18.2-His coated
T3 construct: Bought protein; also called Claudin18.2重组蛋白; not shown: His tag

| ADCC活性 EC50 (靶细胞的裂解百分比, LDH; NUGC4-Claudin18.2靶细胞, NK92效应细胞) [1] [nM] | EC50 [2] [mg/L] | binding result [3] | EC50 [4] [mg/L] | Binder |
| --- | --- | --- | --- | --- |
| 0.0575 | 0.119 | no binding |  | 对照抗体(来自专利CN20148000912) (antibody, V domains shown) VH: QIQLVQSGPELKKPGETVKISCKASGYTFTNYGMNWVKQAPGKGLKWMGWINTNTGEPTYAEEFKGRFAFSLETSASTAYLQINNLKNEDTATYFCARLGFGNAMDYWGQGTSVTVSS VL: DIVMTQSPSSLTVTAGEKVTMSCKSSQSLLNSGNQKNYLTWYQQKPGQPPKLLIYWASTRESGVPDRFTGSGSGTDFTLTISSVQAEDLAVYYCQNDYSYPLTFGAGTKLELK |
| 0.0126 | 0.028 | no binding | 0.49 | 人源化抗体HA1LA1 (antibody, human IgG1, kappa, V domains shown, also called Claudin18.2单抗对照) VH: QVQLVESGGGVVQPGRSLRLSCAASGFTFSTYGVHWVRQAPGKGLEWVAVIWNGGNTDYNAAFISRFTISRDNSKNTLYLQMNSLRAEDTAVYYCARNRRGGGFGMDYWGQGTLVTVSS VL: DIVMTQSPDSLAVSLGERATINCKSSQSLLNGGIQKNYLTWYQQKPGQPPKLLIYWASTRESGVPDRFSGSGSGTDFTLTISSLQAEDVAVYYCQNAYTYPFTFGQGTKLEIKR |
